In doi:10.1101/2023.03.06.531343 one finds percent of the input co-immunoprecipitated (% of the input) data, which are given here for four substances.

For the assay, the target named is VirE2-Venus (expressed in transgenic Arabidopsis roots) (Agrobacterium tumefaciens) (UniProt P0A3W8). Kind of assay: co-IP.
Chain of UniProt P0A3W8 (P0A3W8 whole entry, the tested form may be a part): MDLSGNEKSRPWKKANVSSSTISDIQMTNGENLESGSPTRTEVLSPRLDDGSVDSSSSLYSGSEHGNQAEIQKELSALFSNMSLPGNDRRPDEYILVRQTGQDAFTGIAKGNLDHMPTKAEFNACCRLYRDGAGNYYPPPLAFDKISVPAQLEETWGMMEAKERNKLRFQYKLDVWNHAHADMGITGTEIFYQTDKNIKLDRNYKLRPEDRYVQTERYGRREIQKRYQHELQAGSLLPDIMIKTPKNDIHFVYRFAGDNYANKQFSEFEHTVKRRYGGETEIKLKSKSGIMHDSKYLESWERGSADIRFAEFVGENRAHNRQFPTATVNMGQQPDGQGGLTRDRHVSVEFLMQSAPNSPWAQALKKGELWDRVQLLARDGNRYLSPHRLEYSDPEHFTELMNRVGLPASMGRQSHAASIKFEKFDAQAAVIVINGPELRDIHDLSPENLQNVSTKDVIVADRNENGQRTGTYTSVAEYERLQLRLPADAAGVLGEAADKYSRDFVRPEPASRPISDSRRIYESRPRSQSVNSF
In turn, “myc-tagged myosin XI-K cargo binding domain (transgenic Arabidopsis roots) (domain or fragment)” gave a percent of the input co-immunoprecipitated (% of the input) of 4. The value for “myc-tagged myosin VIII-B cargo binding domain (transgenic Arabidopsis roots) (domain or fragment)” was 4. The value for “myc-tagged myosin VIII-A cargo binding domain (transgenic Arabidopsis roots) (domain or fragment)” was 4; that for “myc-tagged myosin VIII-2 cargo binding domain (transgenic Arabidopsis roots) (domain or fragment)” was 4.
